Assay results: the supplement of paper PMC10567573

B1: PTPN9 (parent)
chain: NKWTVQYNVSPLSWNVAVKFLMAR

Variants of: B1
Test: protein stability index of a GFP-peptide fusion (GPS, HEK-293T) (PSI 1-6); higher = more stable
Conditions: c terminus: a fixed tail appended
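Note: lentivirally expressed fusions sorted by FACS into six bins by GFP to DsRed ratio, PSI derived from sequencing read proportions per bin multiplied by bin number.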

Variant | protein stability index
NKWTVQYNVSPLSWNVAVKSLMAR [F20S] | 2.3
NKWTVQYNVSPLSWNVAVKCLMAR [F20C] | 1.68
NKWTVQYNVSPLSWNVAVKYLMAR [F20Y] | 2.94
NKWTVQYNVSPLSWNVAVKQLMAR [F20Q] | 2.38
NKWTVQYNVSPLSWNVAVKGLMAR [F20G] | 2.97
NKWTVQYNVSPLSWNVAVKHLMAR [F20H] | 1.67
NKWTVQYNVSPLSWNVAVKALMAR [F20A] | 3.35
NKWTVQYNVSPLSWNVAVKPLMAR [F20P] | 1.68
NKWTVQYNVSPLSWNVAVKELMAR [F20E] | 2.68
NKWTVQYNVSPLSWNVAVKRLMAR [F20R] | 3.62
NKWTVQYNVSPLSWNVAVKTLMAR [F20T] | 2.1
NKWTVQYNVSPLSWNVAVKDLMAR [F20D] | 1.97
NKWTVQYNVSPLSWNVAVKILMAR [F20I] | 2.27
NKWTVQYNVSPLSWNVAVKNLMAR [F20N] | 2.25
NKWTVQYNVSPLSWNVAVKWLMAR [F20W] | 3.8
NKWTVQYNVSPLSWNVAVAFLMAR [K19A] | 1.74
NKWTVQYNVSPLSWNVAVLFLMAR [K19L] | 3.29
NKWTVQYNVSPLSWNVAVYFLMAR [K19Y] | 3.14
NKWTVQYNVSPLSWNVAVFFLMAR [K19F] | 1.89
NKWTVQYNVSPLSWNVAVPFLMAR [K19P] | 1.28
NKWTVQYNVSPLSWNVAVNFLMAR [K19N] | 1.63
NKWTVQYNVSPLSWNVAVQFLMAR [K19Q] | 3.01
NKWTVQYNVSPLSWNVAVDFLMAR [K19D] | 3.33
NKWTVQYNVSPLSWNVAVCFLMAR [K19C] | 2.41

Variant | protein stability index
NKWTVQYNVSPLSWNVAVHFLMAR [K19H] | 3.44
NKWTVQYNVSPLSWNVAVEFLMAR [K19E] | 3.72
NKWTVQYNVSPLSWNVAVMFLMAR [K19M] | 2.06
NKWTVQYNVSPLSWNVAVTFLMAR [K19T] | 2.69
NKWTVQYNVSPLSWNVAVRFLMAR [K19R] | 2.64
NKWTVQYNVSPLSENVAVKFLMAR [W14E] | 1.28
NKWTVQYNVSPLSVNVAVKFLMAR [W14V] | 2.4
NKWTVQYNVSPLSLNVAVKFLMAR [W14L] | 2.71
NKWTVQYNVSPLSYNVAVKFLMAR [W14Y] | 2.01
NKWTVQYNVSPLSPNVAVKFLMAR [W14P] | 2.08
NKWTVQYNVSPLSINVAVKFLMAR [W14I] | 3.02
NKWTVQYNVSPLSQNVAVKFLMAR [W14Q] | 2.62
NKWTVQYNVSPLSTNVAVKFLMAR [W14T] | 1.93
NKWTVQYNVSPLSCNVAVKFLMAR [W14C] | 2.29
NKWTVQYNVSPLSRNVAVKFLMAR [W14R] | 2.4
NKWTVQYNVSPLSKNVAVKFLMAR [W14K] | 2.24
NKWTVQYNVSPLSNNVAVKFLMAR [W14N] | 2.06
NKWTVQYNVSPLSHNVAVKFLMAR [W14H] | 2.15
NKWTVQYNVSPLSANVAVKFLMAR [W14A] | 2.09
NKWTVQYNVSPLSDNVAVKFLMAR [W14D] | 1.62
NKWTVQYNVSPLSGNVAVKFLMAR [W14G] | 2.35
NKWTVQYNVSPLSSNVAVKFLMAR [W14S] | 1.78
NKWTVQYNVSPLSMNVAVKFLMAR [W14M] | 2.75
NKWTVQYNVSPLSWNVAVKFLDAR [M22D] | 2.27

Variant | protein stability index
NKWTVQYNVSPLSWNVAVKFLEAR [M22E] | 1.73
NKWTVQYNVSPLSWNVAVKFLCAR [M22C] | 2.06
NKWTVQYNVSPLSWNVAVKFLTAR [M22T] | 2.09
NKWTVQYNVSPLSWNVAVKFLNAR [M22N] | 2.06
NKWTVQYNVSPLSWNVAVKFLRAR [M22R] | 1.88
NKWTVQYNVSPLSWNVAVKFLPAR [M22P] | 2.29
NKWTVQYNVSPLSWNVAVKFLGAR [M22G] | 1.83
NKWTVQYNVSPLSWNVAVKFLKAR [M22K] | 2.73
NKWTVQYNVSPLSWNVAVKFLHAR [M22H] | 2.36
NKWTVQYNVSPLSWNVAVKFLFAR [M22F] | 3.6
NKWTVQYNVSPLSWNVAVKFLIAR [M22I] | 2.72
NKWTVQYNVSPLSWNVAVKFLYAR [M22Y] | 3.05
NKWTVQYNVSPLSWNVAVKFRMAR [L21R] | 3.22
NKWTVQYNVSPLSWNVAVKFNMAR [L21N] | 1.72
NKWTVQYNVSPLSWNVAVKFVMAR [L21V] | 3.01
NKWTVQYNVSPLSWNVAVKFKMAR [L21K] | 2.5
NKWTVQYNVSPLSWNVAVKFPMAR [L21P] | 1.26
NKWTVQYNVSPLSWNVAVKFHMAR [L21H] | 2.98
NKWTVQYNVSPLSWNVAVKFYMAR [L21Y] | 2.89
NKWTVQYNVSPLSWNVAVKFAMAR [L21A] | 3.37
NKWTVQYNVSPLSWNVAVKFDMAR [L21D] | 2.03
NKWTVQYNVSPLSWNVAVKFEMAR [L21E] | 1.9
NKWTVQYNVSPLSWNVAVKFMMAR [L21M] | 2.35
NKWTVQYNVSPLSWNVAVKFIMAR [L21I] | 3.32

Variant | protein stability index
NKWTVQYNVSPLSWNVAVKFTMAR [L21T] | 2.9
NKWTVQYNVSPLSWNVAVKFWMAR [L21W] | 1.63
NKWTVQYNVSPLSWNVAVKFSMAR [L21S] | 3.66
NKWTVQYNVSPLSWNVAVKFGMAR [L21G] | 1.73
NKWTVQYNVSPLSWNVATKFLMAR [V18T] | 2.76
NKWTVQYNVSPLSWNVADKFLMAR [V18D] | 2.03
NKWTVQYNVSPLSWNVAIKFLMAR [V18I] | 2.62
NKWTVQYNVSPLSWNVANKFLMAR [V18N] | 2.21
NKWTVQYNVSPLSWNVAQKFLMAR [V18Q] | 1.49
NKWTVQYNVSPLSWNVARKFLMAR [V18R] | 2.08
NKWTVQYNVSPLSWNVAYKFLMAR [V18Y] | 2.04
NKWTVQYNVSPLSWNVALKFLMAR [V18L] | 2.72
NKWTVQYNVSPLSWNVACKFLMAR [V18C] | 2.73
NKWTVQYNVSPLSWNVAHKFLMAR [V18H] | 1.78
NKWTVQYNVSPLSWNVAFKFLMAR [V18F] | 2.44
NKWTVQYNVSPLSWNVAGKFLMAR [V18G] | 1.8
NKWTVQYNVSPLSWNVASKFLMAR [V18S] | 2.94
NKWTVQYNVSPLSWNVAEKFLMAR [V18E] | 1.49
NKWTVQYNVSPLSWNVAWKFLMAR [V18W] | 1.77
NKWTVQYNVSPLSWNVAPKFLMAR [V18P] | 1.28
NKWTVQYNVSPLSWNVAKKFLMAR [V18K] | 2.72
NKWTVQYNVSPLSWNVAAKFLMAR [V18A] | 2.48
